How the values were obtained:
[1] = biological target: T1, cynoCD47/mFc fusion protein (extracellular domain of cynomolgus CD47 fused to mouse Fc) (Macaca fascicularis, UniProt A0A2K5X4I2); test: SPR; Biacore 2000; antibody amine coupled to a CM4 chip, CD47 constructs as analyte; 10 mM HEPES pH 7.4, 150 mM NaCl, 0.005% tween-20; 25°C; global fit to a 1:1 model with mass transport; conditions: both partners purified
T1 construct: cynomolgus monkey CD47 extracellular domain, cDNA cloned from a cynomolgus spleen cDNA library (BioChain); differs from human CD47 at 3 amino acids in the extracellular domain; also called cyno-CD47 Fc fusion protein; cynomolgus monkey CD47

[2] = biological target: T2, human CD47 on stably transfected rat YB2/0 cells (Homo sapiens, UniProt Q08722); test: flow cytometry on cells; hybridoma clones (supernatants) tested by FACS on parental or human CD47-transfected rat YB2/0 cells; conditions: partners not purified
T2 construct: human CD47 expressed on the surface of YB2/0 cells; also called CD47-transfected YB2/0 cells; source: rat YB2/0 cells, stably transfected, on cells

[3] = biological target: T3, human CD47/mFc fusion protein (extracellular domain of human CD47 fused to mouse Fc) (human, UniProt Q08722); test: ELISA; competition: plates coated with 1 μg/ml huCD47/mFc; 10 μg/ml biotin-labeled mouse 5F9 with various concentrations of unlabeled Hu5F9-G4, room temperature 1 hr; HRP-streptavidin; conditions: both partners purified
T3 construct: human CD47 extracellular domain, cloned from a full-length human CD47 cDNA (Open Biosystems); also called huCD47/mFc; hCD47/mFc; source: purified recombinant

Kd [1] [nM] | binding result [2] | binding result [3] | Binder
0.01 | – | – | Hu5F9-G4 (humanized 5F9 antibody, human IgG4 with Ser228Pro) (antibody, V domains shown) VH: QVQLVQSGAEVKKPGASVKVSCKASGYTFTNYNMHWVRQAPGQRLEWMGTIYPGNDDTSYNQKFKDRVTITADTSASTAYMELSSLRSEDTAVYYCARGGYRAMDYWGQGTLVTVSS VL: DIVMTQSPLSLPVTPGEPASISCRSSQSIVYSNGNTYLGWYLQKPGQSPQLLIYKVSNRFSGVPDRFSGSGSGTDFTLKISRVEAEDVGVYYCFQGSHVPYTFGQGTKLEIK
– | binds | binds | mouse anti-human CD47 monoclonal antibody 5F9 (antibody, V domains shown, mouse 5F9 VH (IGHV1 family); mouse heavy chain constant region; mouse 5F9 VL (IGKV1 subgroup); mouse light chain constant region; not described beyond the IGKV1 V segment; also called mouse 5F9; parental mouse 5F9; source: hybridoma (spleen cells of immunized Balb/c mice fused with SP2/0 cells); supernatant in the FACS screen; copies: 2 + 2) VH: QVQLQQPGAELVKPGASVMMSCKASGYTFTNYNMHWVKQTPGQGLEWIGTIYPGNDDTSYNQKFKDKATLTADKSSSAAYMQLSSLTSEDSAVYYCARGGYRAMDYWGQGTSVTVSS VL: DVLMTQTPLSLPVSLGDQASISCRSSQSIVYSNGNTYLGWYLQKPGQSPKLLIYKVSNRFSGVPDRFSGSGSGTDFTLKISRVEAEDLGVYHCFQGSHVPYTFGGGTKVEIK

From paper PMC4577081 (PLoS ONE, 2015)
